The source of these data is US9187525B2, “Methods of treating ophthalmic diseases using NPR-B agonists” (Shire Orphan Therapies GmbH, dated 2015).

Numbered stars: 1 amine (or outer) side, 2 acyl side, 3 side chain; on linkers, the order of the positions; unused ones are H or OH. Square brackets hold non-standard residues; d marks the D form. * marks the point of attachment. Ebe = (R)-2-amino-3-(methylsulfanyl)propanoic acid, CSC[C@H](N[*:1])C(=O)[*:2]; 6059 = 3-(Octane-1-sulfinyl)-propionic acid, CCCCCCCCS(=O)CCC(=O)*; 6057 = 3-Octylsulfanyl-propionic acid, CCCCCCCCSCCC(=O)*; 6058 = 7-Butylsulfanyl-heptanoic acid, CCCCSCCCCCCC(=O)*; 6014 = (E)-dodec-2-enoic acid, CCCCCCCCC/C=C/C(=O)*; 6056 = (2S)-2-octylcyclopropanecarboxylic acid; Dodecenoyl(5Z) = CCCCCC/C=C\CCCC(=O)*; Hyp = O=C(O)[C@@H]1C[C@@H](O)CN1; tBuAla = CC(C)(C)C[C@H](N)C(=O)O; KM‑116‑167 = not defined here; NMeL = CN[C@@H](CC(C)C)C(=O)O; NMeK = CN[C@@H](CCCCN)C(=O)O; Tle = CC(C)(C)[C@H](N)C(=O)O; Lauroyl = CCCCCCCCCCCC(=O)*; NMeA = CN[C@@H](C)C(=O)O; Octanoyl = CCCCCCCC(=O)*; 6054 = not defined here; Nva = CCC[C@H](N)C(=O)O; Hexanoyl = CCCCCC(=O)*; GABA = NCCCC(=O)O; Sar = CNCC(=O)O Where only a bound is given, the exact number is not on record here.

Sequences and labels used below:
B1: JAL-1239 (peptide)
peptide: 6054-FRL[Hyp][NMeL]DRI-NH2
modifications: not fully specified (some residues); printed as 6054-Phe-arg-Leu-Hyp-Nml-Asp-Arg-Ile-NH2; reading uncertain
B2: JAL-1226 (peptide)
peptide: Octanoyl-AFRL[Hyp][Tle]DRI-NH2
modifications: not fully specified (some residues); printed as Occ-ala-Phe-arg-Leu-Hyp-Tbg-Asp-Arg-Ile-NH2
B3: JAL-0542 (peptide)
peptide: Hexanoyl-[GABA]FGLKLDRIS[Ebe]-NH2
SMILES: CCCCCC(=O)NCCCC(=O)N[C@@H](Cc1ccccc1)C(=O)NCC(=O)N[C@@H](CC(C)C)C(=O)N[C@@H](CCCCN)C(=O)N[C@@H](CC(C)C)C(=O)N[C@@H](CC(=O)O)C(=O)N[C@@H](CCCNC(=N)N)C(=O)N[C@H](C(=O)N[C@@H](CO)C(=O)N[C@@H](CSC)C(N)=O)[C@@H](C)CC
B4: JAL-1230 (peptide)
peptide: Octanoyl-AFRL[NMeA][NMeL]DRI-NH2
modifications: not fully specified (some residues); printed as Occ-ala-Phe-arg-Leu-Nma-Nml-Asp-Arg-Ile-NH2
B5: JAL-1224 (peptide)
peptide: Octanoyl-AFRL[Hyp]IDRI-NH2
modifications: not fully specified (some residues); printed as Occ-ala-Phe-arg-Leu-Hyp-Ile-Asp-Arg-Ile-NH2
B6: JAL-1157_02 (peptide)
peptide: Octanoyl-XF[dR]L[Hyp]LDRI-NH2
modifications: not fully specified (some residues); printed as Oct-pip-Phe-arg-Leu-Hyp-Leu-Asp-Arg-Ile-NH2
B7: JAL-1225 (peptide)
peptide: Octanoyl-AFRL[Hyp][tBuAla]DRI-NH2
modifications: not fully specified (some residues); printed as Occ-ala-Phe-arg-Leu-Hyp-Npg-Asp-Arg-Ile-NH2
B8: JAL-1228 (peptide)
peptide: Octanoyl-AFRLK[NMeL]DRI-NH2
modifications: not fully specified (some residues); printed as Occ-ala-Phe-arg-Leu-Lys-Nml-Asp-Arg-Ile-NH2
B9: JAL-1237 (peptide)
peptide: 6014-FRL[Hyp][NMeL]DRI-NH2
modifications: not fully specified (some residues); printed as 6014-Phe-arg-Leu-Hyp-Nml-Asp-Arg-Ile-NH2
B10: JAL-1232 (peptide)
peptide: Octanoyl-AFR[Nva][Hyp][NMeL]DRI-NH2
modifications: not fully specified (some residues); printed as Occ-ala-Phe-arg-Nva-Hyp-Nml-Asp-Arg-Ile-NH2
B11: JAL-1243 (peptide)
peptide: 6059-FRL[Hyp][NMeL]DRI-NH2
modifications: not fully specified (some residues); printed as 6059-Phe-arg-Leu-Hyp-Nml-Asp-Arg-Ile-NH2
B12: JAL-1240 (peptide)
peptide: 6056-FRL[Hyp][NMeL]DRI-NH2
modifications: not fully specified (some residues); printed as 6056-Phe-arg-Leu-Hyp-Nml-Asp-Arg-Ile-NH2
B13: JAL-1159 (peptide)
peptide: Octanoyl-AFR[KM‑116‑167][NMeL]DRI-NH2
modifications: not fully specified (some residues); printed as Occ-ala-Phe-arg-(KM-116-167)-Nml-Asp-Arg-Ile-NH2; reading uncertain
B14: JAL-1214 (peptide)
peptide: Lauroyl-FRL[Hyp][NMeL]DRI-NH2
modifications: not fully specified (some residues); printed as 832-Phe-arg-Leu-Hyp-Nml-Asp-Arg-Ile-NH2
B15: JAL-1233 (peptide)
peptide: Octanoyl-AFR[Ebe][Hyp][NMeL]DRI-NH2
modifications: not fully specified (some residues); printed as Occ-ala-Phe-arg-Ebe-Hyp-Nml-Asp-Arg-Ile-NH2
B16: JAL-1242 (peptide)
peptide: 6058-FRL[Hyp][NMeL]DRI-NH2
modifications: not fully specified (some residues); printed as 6058-Phe-arg-Leu-Hyp-Nml-Asp-Arg-Ile-NH2
B17: JAL-1241 (peptide)
peptide: 6057-FRL[Hyp][NMeL]DRI-NH2
modifications: not fully specified (some residues); printed as 6057-Phe-arg-Leu-Hyp-Nml-Asp-Arg-Ile-NH2
B18: JAL-1227 (peptide)
peptide: Octanoyl-AFRL[Hyp][Ebe]DRI-NH2
modifications: not fully specified (some residues); printed as Occ-ala-Phe-arg-Leu-Hyp-Ebe-Asp-Arg-Ile-NH2
B19: JAL-1231 (peptide)
peptide: Octanoyl-AFRL[Sar][NMeL]DRI-NH2
modifications: not fully specified (some residues); printed as Occ-ala-Phe-arg-Leu-Sar-Nml-Asp-Arg-Ile-NH2
B20: JAL-1229 (peptide)
peptide: Octanoyl-AFRL[NMeK][NMeL]DRI-NH2
modifications: not fully specified (some residues); printed as Occ-ala-Phe-arg-Leu-Nmk-Nml-Asp-Arg-Ile-NH2
B21: JAL-1238 (peptide)
peptide: {Dodecenoyl(5Z)}-FRL[Hyp][NMeL]DRI-NH2
modifications: not fully specified (some residues); printed as 6015-Phe-arg-Leu-Hyp-Nml-Asp-Arg-Ile-NH2

In this test the target is T1, natriuretic peptide receptor-B (human).
T1 chain: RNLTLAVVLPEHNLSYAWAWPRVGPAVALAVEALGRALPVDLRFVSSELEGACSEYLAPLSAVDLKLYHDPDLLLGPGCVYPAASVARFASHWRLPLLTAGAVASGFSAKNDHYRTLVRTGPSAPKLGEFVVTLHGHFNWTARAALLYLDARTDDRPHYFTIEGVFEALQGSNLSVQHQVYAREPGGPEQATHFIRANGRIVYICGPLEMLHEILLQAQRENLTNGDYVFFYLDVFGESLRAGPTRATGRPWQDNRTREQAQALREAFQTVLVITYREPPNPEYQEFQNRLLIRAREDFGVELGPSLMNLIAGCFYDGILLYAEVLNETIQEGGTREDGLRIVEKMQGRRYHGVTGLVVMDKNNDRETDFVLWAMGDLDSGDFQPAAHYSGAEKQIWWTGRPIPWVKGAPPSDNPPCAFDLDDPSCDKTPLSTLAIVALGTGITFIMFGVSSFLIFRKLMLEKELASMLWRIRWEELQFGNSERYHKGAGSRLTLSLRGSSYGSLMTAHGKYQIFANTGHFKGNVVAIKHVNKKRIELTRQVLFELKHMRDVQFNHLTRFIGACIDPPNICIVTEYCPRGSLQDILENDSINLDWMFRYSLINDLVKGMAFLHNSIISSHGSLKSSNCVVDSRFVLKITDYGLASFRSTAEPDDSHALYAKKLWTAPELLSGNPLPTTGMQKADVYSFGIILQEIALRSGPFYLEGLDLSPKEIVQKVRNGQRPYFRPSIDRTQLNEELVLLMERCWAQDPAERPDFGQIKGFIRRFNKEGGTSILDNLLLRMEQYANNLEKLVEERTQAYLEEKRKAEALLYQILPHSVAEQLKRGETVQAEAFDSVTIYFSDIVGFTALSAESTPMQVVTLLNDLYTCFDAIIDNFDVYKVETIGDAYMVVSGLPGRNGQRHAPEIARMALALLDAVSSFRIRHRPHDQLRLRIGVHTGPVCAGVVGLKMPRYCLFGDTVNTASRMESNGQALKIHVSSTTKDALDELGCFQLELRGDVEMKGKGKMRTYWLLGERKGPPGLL
Nature of the test: cell-based or functional assay.
Regarding Hexanoyl-[Ebe][dA]FGLKLDRI-NH2 [JAL-0541], the “EC50 group, cGMP in GTM-3 cells” value is at most 15 µM.
As to B1, the “EC50 group, cGMP in GTM-3 cells” value is at most 5 µM.
On to B2, for which the “EC50 group, cGMP in GTM-3 cells” value is at most 15 µM.
Consider B3, for which the “EC50 group, cGMP in GTM-3 cells” value was at most 15 µM.
Regarding B4, the “EC50 group, cGMP in GTM-3 cells” value was at most 15 µM.
Take B5: the “EC50 group, cGMP in GTM-3 cells” value is at most 5 µM.
In the case of B6 it was at most 15 µM; in that of B7, at most 1 µM; in that of B8, at most 5 µM.
Next, B9: at most 5 µM.
Regarding B10, the “EC50 group, cGMP in GTM-3 cells” value was at most 5 µM.
B11: the “EC50 group, cGMP in GTM-3 cells” value was at most 5 µM.
B12: the “EC50 group, cGMP in GTM-3 cells” value was at most 5 µM.
B13: the “EC50 group, cGMP in GTM-3 cells” value is at most 15 µM.
Next, B14: at most 5 µM; B15: at most 5 µM; B16: at most 5 µM.
In the case of B17 it was at most 5 µM.
As to B18, the “EC50 group, cGMP in GTM-3 cells” value was at most 5 µM.
As to B19, the “EC50 group, cGMP in GTM-3 cells” value is at most 5 µM.
Take B20: the “EC50 group, cGMP in GTM-3 cells” value is at most 5 µM.
On to B21, for which the “EC50 group, cGMP in GTM-3 cells” value was at most 5 µM.
